Measured values reported in patent US20260167728A1 (published 2026).
Changes are numbered by the printed parent chain. One block for each binder: values may come before it.

What was measured:
[1] = biological target: T1, human EGFR (human, UniProt P00533 25-645, limits assumed); assay: SPR Biacore 37 C
T1 construct: on HT-29 cells in the cytotoxicity assay; also called epidermal growth factor receptor

[2] = biological target: T2, cynomolgus monkey EGFR (cynomolgus monkey, UniProt A0A2K5WK39 25-645); assay: SPR Biacore 37 C
T2 construct: also called Cyno EGFR

[3] = biological target: T3, human CD3 (human, UniProt P07766 23-126); assay: SPR Biacore 37 C
T3 sequence (P07766 23-126 limits assumed): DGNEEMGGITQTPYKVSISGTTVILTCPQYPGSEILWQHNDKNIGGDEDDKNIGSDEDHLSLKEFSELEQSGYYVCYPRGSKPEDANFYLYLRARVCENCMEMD

[4] = biological target: T4, cynomolgus monkey CD3 (cynomolgus monkey, UniProt Q95LI5 22-117); assay: SPR Biacore 37 C
T4 construct: also called Cyno CD3
T4 sequence: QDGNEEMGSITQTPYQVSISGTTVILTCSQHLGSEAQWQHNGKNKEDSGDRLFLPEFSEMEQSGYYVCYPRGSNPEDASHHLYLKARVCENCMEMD

[5] = biological target: T3, human CD3; assay: method not stated
[6] = biological target: T1, human EGFR; assay: BLI, room temperature
Procedure: Each construct was expressed in small-scale and purified. Thermal stability was determined by Differential Scanning Fluorimetry. Melting temperature (Tₘ) determined by Differential Scanning Fluorimetry experiments described herein were performed either in duplicate or triplicate using GloMelt™ dye and QuantStudio5™. GloMelt™ dye undergoes fluorescence enhancement upon binding to hydrophobic regions of denatured proteins. Therefore, the dye can be used to detect protein unfolding or measure thermal stability. GloMelt™ dye is optimized for detection in the SYBR® Green channel of qPCR instruments. The Differential Scanning Fluorimetry experiments were performed in 96-well plates with 10 μg protein/reaction (equal to 0.5 mg/mL final protein concentration), reaction buffer, and GloMelt™ 10× dye according to manufacturer's instructions. Fluorescence of 96-well plates was read and melt curve plots were generated in the QuantStudio5™ qPCR system. Binding affinity was analyzed with bio-layer interferometry at room temperature with human EGFR as the antigen.

[7] = biological target: T5, huCD3e-mFc (human, UniProt P07766 23-126); assay: Pool 3 screen
T5 construct: not shown: mFc, not described
T5 sequence (P07766 23-126): as the sequence (P07766 23-126 limits assumed) above

- Kd [1]: 0.736 nM
- koff [1]: 0.00077 s⁻¹
- kon [1]: 1.04e+06 M⁻¹ s⁻¹
- Kd [2]: 1.05 nM
- koff [2]: 0.001 s⁻¹
- kon [2]: 910000 M⁻¹ s⁻¹
- Kd [3]: 57 nM
- koff [3]: 0.18 s⁻¹
- kon [3]: 3.1e+06 M⁻¹ s⁻¹
- Kd [4]: 167 nM
- koff [4]: 0.18 s⁻¹
- kon [4]: 1.1e+06 M⁻¹ s⁻¹
B1: AMX-525 (bispecific antibody)
chain: ASSATPESGPGTSTEPSEGSAPGTSESATPESGPGSGPGTSESATPGTSESATPESGPGSEPATSGSETPGTSESATPESGPGTSTEPSEGSAPGSPAGSPTSTEEGTSESATPESGPGSEPATSGSETPGTSESATPESGPGSPAGSPTSTEEGSPAGSPTSTEEGTSTEPSEGSAPGTSESATPESGPGTSESATPESGPGTSESATPESGPGSEPATSGSETPGSEPATSGSETPGSPAGSPTSTEEGTSTEPSEGSAPGTSTEPSEGSAPGSEPATSGSETPGTSESATPEAGRSASHTPAGLTGPGTSESATPESDIQMTQSPSSLSASVGDRVTITCQASQDISNYLNWYQQKPGKAPKLLIYDASNLETGVPSRFSGSGSGTDFTFTISSLQPEDIATYYCQHFDHLPLAFGQGTKVEIKSESATPESGPGTSPGATPESGPGTSESATPQVQLQESGPGLVKPSETLSLTCTVSGGSVSSGDYYWTWIRQPPGKGLEWIGHIYYSGNTNYNPSLKSRVTISVDTSKNQFSLKLSSVTAADTAVYYCARDRVTGAFDIWGQGTLVTVSSGGGGSELVVTQEPSLTVSPGGTVTLTCRSSNGAVTSSNYANWVQQKPGQAPRGLIGGTNKRAPGTPARFSGSLLEGKAALTLSGVQPEDEAVYYCALWYPNLWVFGGGTKLTVLSESATPESGPGTSPGATPESGPGTSESATPEVQLVESGGGIVQPGGSLRLSCAASGFTFSTYAMNWVRQAPGKGLEWVGRIRTKRNDYATYYADSVKGRFTISRDDSKNTLYLQMNSLKTEDTAVYYCVRHENFGNSYVSWFAHWGQGTLVTVSSGTATPESGPGEAGRSASHTPAGLTGPATPESGPGTSESATPESGPGSPAGSPTSTEEGTSESATPESGPGSEPATSGSETPGTSESATPESGPGTSTEPSEGSAPGTSTEPSEGSAPGTSTEPSEGSAPGTSTEPSEGSAPGTSTEPSEGSAPGTSTEPSEGSAPGSPAGSPTSTEEGTSTEPSEGSAPGTSESATPESGPGSEPATSGSETPGTSESATPESGPGSEPATSGSETPGTSESATPESGPGTSTEPSEGSAPGTSESATPESGPGSPAGSPTSTEEGSPAGSPTSTEEGSPAGSPTSTEEGTSESATPESGPGTSTEPSEGSAPGTSESATPESGPGSEPATSGSETPGTSESATPESGPGSEPATSGSETPGTSESATPESGPGTSTEPSEGSAPGSPAGSPTSTEEGTSESATPESGPGSEPATSGSETPGTSESATPESGPGSPAGSPTSTEEGSPAGSPTSTEEGTSTEPSEGSAPGTSESATPESGPGTSESATPESGPGTSPSATPESGPGSEPATSGSETPGSEPATSGSETPGSPAGSPTSTEEGTSTEPSEGSAPGTSTEPSEGSAPGSEPATSGSETPGTSESAGEPEA
notes: Fully masked paTCE; also called AC4230; EGFR.37/CD3.318 paTCE

- Kd [1]: 0.034 nM
- koff [1]: 0.00023 s⁻¹
- kon [1]: 6.45e+06 M⁻¹ s⁻¹
- Kd [2]: 0.042 nM
- koff [2]: 0.00017 s⁻¹
- kon [2]: 4.1e+06 M⁻¹ s⁻¹
- Kd [3]: 29.2 nM
- koff [3]: 0.128 s⁻¹
- kon [3]: 4.4e+06 M⁻¹ s⁻¹
- Kd [4]: 28 nM
- koff [4]: 0.14 s⁻¹
- kon [4]: 5e+06 M⁻¹ s⁻¹
B2: AMX-525 (uTCE) (bispecific antibody)
chain: GTSESATPESDIQMTQSPSSLSASVGDRVTITCQASQDISNYLNWYQQKPGKAPKLLIYDASNLETGVPSRFSGSGSGTDFTFTISSLQPEDIATYYCQHFDHLPLAFGQGTKVEIKSESATPESGPGTSPGATPESGPGTSESATPQVQLQESGPGLVKPSETLSLTCTVSGGSVSSGDYYWTWIRQPPGKGLEWIGHIYYSGNTNYNPSLKSRVTISVDTSKNQFSLKLSSVTAADTAVYYCARDRVTGAFDIWGQGTLVTVSSGGGGSELVVTQEPSLTVSPGGTVTLTCRSSNGAVTSSNYANWVQQKPGQAPRGLIGGTNKRAPGTPARFSGSLLEGKAALTLSGVQPEDEAVYYCALWYPNLWVFGGGTKLTVLSESATPESGPGTSPGATPESGPGTSESATPEVQLVESGGGIVQPGGSLRLSCAASGFTFSTYAMNWVRQAPGKGLEWVGRIRTKRNDYATYYADSVKGRFTISRDDSKNTLYLQMNSLKTEDTAVYYCVRHENFGNSYVSWFAHWGQGTLVTVSSGTATPESGPG
notes: Fully unmasked metabolite; also called unmasked AMX-525; not shown: remnant of cleaved RSR-3213

- Kd [5]: ~203 nM
- Kd [6]: 2.4 nM
B3: AC2909 (EGFR.61/CD3.23 paTCE) (bispecific antibody)
scFv 1: EIVLTQSPGTLSLSPGERATLSCQASQDISNYLNWYQQKPGQAPRLLIYDASNLETGIPDRFSGSGSGTDFTLTISRLEPEDFAVYYCQHFDHLPLAFGQGTKVEIKGATPPETGAETESPGETTGGSAESEPPGEGQVQLQESGPGLVKPSETLSLTCTVSGGSVSSGDYYWTWIRQPPGKGLEWIGHIYYSGNTNYNPSLKSRVTISVDTSKNQFSLKLSSVTAADTAVYYCARDRVTGAFDIWGQGTLVTVSS
scFv 2: ELVVTQEPSLTVSPGGTVTLTCRSSNGAVTSSNYANWVQQKPGQAPRGLIGGTNKRAPGTPARFSGSLLGGKAALTLSGVQPEDEAVYYCALWYPNLWVFGGGTKLTVLGATPPETGAETESPGETTGGSAESEPPGEGEVQLLESGGGIVQPGGSLKLSCAASGFTFNTYAMNWVRQAPGKGLEWVARIRSKYNNYATYYADSVKDRFTISRDDSKNTVYLQMNNLKTEDTAVYYCVRHENFGNSYVSWFAHWGQGTLVTVSS
notes: EGFR library format (remarks)

- Kd [7]: 15.4 nM
- Kd [5]: 203 nM
- Kd [6]: 2.3 nM
B4: AC2885 (EGFR.37/CD3.23 paTCE) (bispecific antibody)
scFv 1: DIQMTQSPSSLSASVGDRVTITCQASQDISNYLNWYQQKPGKAPKLLIYDASNLETGVPSRFSGSGSGTDFTFTISSLQPEDIATYYCQHFDHLPLAFGQGTKVEIKGATPPETGAETESPGETTGGSAESEPPGEGQVQLQESGPGLVKPSETLSLTCTVSGGSVSSGDYYWTWIRQPPGKGLEWIGHIYYSGNTNYNPSLKSRVTISVDTSKNQFSLKLSSVTAADTAVYYCARDRVTGAFDIWGQGTLVTVSS
scFv 2: B3 scFv 2
notes: EGFR library format (remarks)

- Kd [5]: ~203 nM
- Kd [6]: 2.45 nM
B5: AC2921 (EGFR.73/CD3.23 paTCE) (bispecific antibody)
scFv 1: B3 scFv 1 with G9A, D60A, R77S
scFv 2: B3 scFv 2
notes: EGFR library format (remarks)

- Kd [5]: ~203 nM
- Kd [6]: 7.2 nM
B6: AC2897 (EGFR.49/CD3.23 paTCE) (bispecific antibody)
scFv 1: B4 scFv 1 with F73L, I83F
scFv 2: B3 scFv 2
notes: EGFR library format (remarks)

- Kd [2]: 0.25 nM
- Kd [3]: 36 nM
- Kd [4]: 47 nM
B7: AMX-525 (1x-N) (bispecific antibody)
chain: ASSATPESGPGTSTEPSEGSAPGTSESATPESGPGSGPGTSESATPGTSESATPESGPGSEPATSGSETPGTSESATPESGPGTSTEPSEGSAPGSPAGSPTSTEEGTSESATPESGPGSEPATSGSETPGTSESATPESGPGSPAGSPTSTEEGSPAGSPTSTEEGTSTEPSEGSAPGTSESATPESGPGTSESATPESGPGTSESATPESGPGSEPATSGSETPGSEPATSGSETPGSPAGSPTSTEEGTSTEPSEGSAPGTSTEPSEGSAPGSEPATSGSETPGTSESATPEAGRSASHTPAGLTGPGTSESATPESDIQMTQSPSSLSASVGDRVTITCQASQDISNYLNWYQQKPGKAPKLLIYDASNLETGVPSRFSGSGSGTDFTFTISSLQPEDIATYYCQHFDHLPLAFGQGTKVEIKSESATPESGPGTSPGATPESGPGTSESATPQVQLQESGPGLVKPSETLSLTCTVSGGSVSSGDYYWTWIRQPPGKGLEWIGHIYYSGNTNYNPSLKSRVTISVDTSKNQFSLKLSSVTAADTAVYYCARDRVTGAFDIWGQGTLVTVSSGGGGSELVVTQEPSLTVSPGGTVTLTCRSSNGAVTSSNYANWVQQKPGQAPRGLIGGTNKRAPGTPARFSGSLLEGKAALTLSGVQPEDEAVYYCALWYPNLWVFGGGTKLTVLSESATPESGPGTSPGATPESGPGTSESATPEVQLVESGGGIVQPGGSLRLSCAASGFTFSTYAMNWVRQAPGKGLEWVGRIRTKRNDYATYYADSVKGRFTISRDDSKNTLYLQMNSLKTEDTAVYYCVRHENFGNSYVSWFAHWGQGTLVTVSSGTATPESGPG
notes: Singly masked metabolite; that the N-terminal mask is the one kept is read from the label only; not shown: remnant of cleaved RSR-3213
